Assay results published in patent publication US20180185504A1 (Regeneron, published 2018).

Key:
Assay in all cases: SPR Biacore, 25 C, mAb capture
[1] = biological target: T1, macaca fascicularis (mf) PRLR.mmh (soluble monomeric monkey PRLR) (Macaca fascicularis)
T1 construct: called soluble monomeric PRLR protein
T1 chain: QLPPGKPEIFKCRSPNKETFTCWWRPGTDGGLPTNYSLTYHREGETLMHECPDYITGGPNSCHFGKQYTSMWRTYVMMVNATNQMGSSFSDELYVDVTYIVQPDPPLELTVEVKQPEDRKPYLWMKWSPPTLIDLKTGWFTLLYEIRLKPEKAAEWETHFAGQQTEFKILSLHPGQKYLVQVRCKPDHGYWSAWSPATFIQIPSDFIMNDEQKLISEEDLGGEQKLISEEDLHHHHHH
Method: (§1) Measurements were conducted on a T200 Biacore instrument. Kinetic association (kₐ) and dissociation (kd) rate constants were determined by processing and fitting the data to a 1:1 binding model using Scrubber 2.0 curve fitting software.

[2] = biological target: T2, hPRLR.mmh (soluble monomeric human PRLR) (human)
T2 construct: called soluble monomeric PRLR protein
T2 chain: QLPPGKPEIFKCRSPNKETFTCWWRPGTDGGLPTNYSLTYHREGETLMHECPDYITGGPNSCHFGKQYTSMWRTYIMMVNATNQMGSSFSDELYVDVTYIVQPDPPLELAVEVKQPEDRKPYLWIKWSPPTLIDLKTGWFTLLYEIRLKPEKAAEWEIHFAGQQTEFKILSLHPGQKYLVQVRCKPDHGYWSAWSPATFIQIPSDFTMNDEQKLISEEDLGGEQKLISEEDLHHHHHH
Method: as §1

[3] = biological target: T3, hPRLR.mFc (soluble dimeric human PRLR) (human)
T3 construct: dimeric PRLR construct
T3 chain: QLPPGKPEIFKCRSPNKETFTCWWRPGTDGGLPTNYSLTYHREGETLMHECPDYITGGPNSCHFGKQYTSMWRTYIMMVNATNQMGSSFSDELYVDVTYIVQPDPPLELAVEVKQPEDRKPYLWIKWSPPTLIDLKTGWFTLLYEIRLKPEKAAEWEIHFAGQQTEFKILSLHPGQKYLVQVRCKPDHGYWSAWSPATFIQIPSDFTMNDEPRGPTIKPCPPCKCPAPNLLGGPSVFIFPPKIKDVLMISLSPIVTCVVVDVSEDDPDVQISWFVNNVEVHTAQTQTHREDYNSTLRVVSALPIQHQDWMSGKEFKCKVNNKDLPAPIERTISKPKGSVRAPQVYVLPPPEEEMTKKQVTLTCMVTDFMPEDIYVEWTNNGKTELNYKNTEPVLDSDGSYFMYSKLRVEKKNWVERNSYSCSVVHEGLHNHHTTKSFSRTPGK
Method: as §1

Row | Kd [1] [nM] | T½ [1] [h] | koff [1] [s⁻¹] | kon [1] [M⁻¹ s⁻¹] | Kd [2] [nM] | T½ [2] [h] | koff [2] [s⁻¹] | kon [2] [M⁻¹ s⁻¹] | Kd [3] [nM] | T½ [3] [h] | koff [3] [s⁻¹] | kon [3] [M⁻¹ s⁻¹] | Binder
1 | 1.75 | 0.237 | 0.000814 | 466000 | 1.59 | 0.223 | 0.000864 | 544000 | 0.0906 | 1.91 | 0.000101 | 1.12e+06 | H1H6976N (antibody, human IgG1, V domains shown, Tested with human IgG1 Fc (H1H); also called H2M6976N) VH: EVQLLESGGGFVQPGGSLRLSCAASGFTFSSYAMSWVRQAPGKGLEWVSIISSNGRYTYYADSVKGRFTISRDNSKNTLYLQMNSLRAEDTAVYYCATVTGDWFDPWGQGTLVTVSS VL: DIQLTQSPSFLSASVGDRVTITCWASQDIDISLAWYQQKPGKAPKLLIYAASTLQSGVPSKFSGSGSGTDFTLTISSLQPEDFSTYYCQQLNSYPITFGQGTRLDIK
2 | 1.14 | 1.47 | 0.000131 | 115000 | 0.49 | 2.62 | 7.35e-05 | 150000 | 0.0684 | 9.8 | 1.97e-05 | 287000 | H1H6975N (antibody, human IgG1, V domains shown, Tested with human IgG1 Fc (H1H); also called H2M6975N) VH: EVHLVESGGGLVQPGGSLRLSCAASGFTFSSYEMNWVRQTPGKGLEWISHISSRSVIIYYADSVKGRFTISRDNAKNSLFLQMNSLRAEDTAVYFCAGITIFGIPEYWGQGTLVTVSS VL: EIVLTQSPATLSLSPGERATLSCRASQSVSSYFAWYQQKPGQAPRLLIYDASSRATGIPTRFSGSGSGTDFTLTISSLEPEDFAVYYCQQRSSWPITFGQGTRLEIK
3 | 1.77 | 0.217 | 0.000875 | 495000 | 1.14 | 0.233 | 0.000818 | 715000 | 0.112 | 2.15 | 8.94e-05 | 798000 | H1H6774P (antibody, human IgG1, V domains shown, Human IgG1 Fc (H1H)) VH: EVQLVESGGGLAQPGGSLRLSCVASGFTFSTYWMSWVRQAPGKGLDWVGNIKQDGSEQNYVDSVRGRFTISRDNAKNSLFLQMNSLRAEDTGVYYCATLLTKGDYWGQGTLVTVSS VL: DIQMTQSPSSLSASVGDSVTITCRASQDISNYLDWFQQKPGKAPKSLIYAASILQGGVPSRFSGSGYGTDFTLTISSLQPEDFATYYCRQYKTYPFTFGPGTKVDIK
4 | 0.416 | 0.593 | 0.000325 | 782000 | 0.302 | 0.748 | 0.000257 | 852000 | 0.0439 | 4.71 | 4.08e-05 | 931000 | H1H6966N (antibody, human IgG1, V domains shown, Tested with human IgG1 Fc (H1H); also called H2M6966N) VH: QVQLVQSGAEVQKPGASVKVSCKVSGYTLTALSIHWVRQAPGKGLEWMGNFDPGDGETIHAQKFQGRVTMTGDTSTDTAYMELSSLRSEDTAVYYCVGVTFDYWGQGTLVTVSS VL: EIVMTQSPATLSVSPGERATLSCRASQSVASNLAWYQQKPGQAPRLLLYGASTRATGIPARFSGSGSGTEFTLTISSLQSEDFALYYCQHYNNWPLTFGGGTKVEIK
5 | 3.08 | 0.328 | 0.000585 | 190000 | 1.35 | 0.58 | 0.000332 | 246000 | 0.11 | 4.32 | 4.45e-05 | 407000 | H1H6967N (antibody, human IgG1, V domains shown, Tested with human IgG1 Fc (H1H); also called H2M6967N) VH: EVQLVESGGDLVHPGRSLRLSCAASGFPFDEYAMHWVRQVPGKGLEWVSGISWSNNNIGYADSVKGRFTISRDNAKNSLYLQMNSLRPEDTAFYYCAKSGIFDSWGQGTLVTVSS VL: EIVMTQSPATLSVSPGERATLSCRASQSVSRDLAWYQQKPGQAPRLLIHGASTRATGIPARFSGSGSGAEFTLIISSLQSEDFAVYYCQQYNNWPLTFGGGTKVEIK
6 | 2.04 | 0.25 | 0.000793 | 389000 | 1.41 | 0.233 | 0.000799 | 565000 | 0.192 | 1.85 | 0.000104 | 542000 | H1H6790P (antibody, human IgG1, V domains shown, Human IgG1 Fc (H1H)) VH: EVQLVESGGGLVQPGGSLRLSCAASGFTFSSYAMTWVRQAPGKGLEWVSAITGSVGNTYYADSVKGRFTISRDNSKNTLYLQMNSLGAEDTAEYYCAKGAGMTTNWYLDLWGRGTLVTVSS VL: DIVMTQSPDSLAVSLGARATINCKSSQSVLYSSNNQNYLTWYQQKPGQPPKLLIKWASTRESGVPDRFSGSGSGTDFTLTISSLQAEDVAVYYCQQYASSPYTFGQGTKLEIK
7 | 1.81 | 0.567 | 0.000341 | 189000 | 1.43 | 0.467 | 0.000413 | 288000 | 0.332 | 2.2 | 8.77e-05 | 264000 | H1H6783P (antibody, human IgG1, V domains shown, Human IgG1 Fc (H1H)) VH: QVQLQQSGPGLVKPSQTLSLTCAISGDSVSSNTFAWNWIRQSPSRGLEWLGRTYYRSKWYIDYAESVKSRITITPDTSKNQFSLQLNSVTPEDTALYYCAGGYTYAPRGAFDIWGQGTMVTVSS VL: not shown
8 | 0.254 | 1.43 | 0.000134 | 527000 | 0.124 | 1.7 | 0.000113 | 907000 | 0.0392 | 5.65 | 3.41e-05 | 869000 | H1H6765P (antibody, human IgG1, V domains shown, Human IgG1 Fc (H1H)) VH: EVQLVESGGGVVRPGGSLRLSCVGSGFSFDDHGMNWVRQGPGKGLEWVSGFNWNGGSTNYAESVKGRFTISRDNARNSLFLQMNSLRAEDTALYYCVRGRSGWFNDAFDVWGPGTMVTVSS VL: EIVLTQSPGTLSLSPGERATLSCRASQTINSNYLAWYRQKPGQTPRLLIYGTSSRATGIPDRFSGSGSGTDFSLTISRLEPEDFAVFYCQQYAGLPTFGPGTKVDIK
9 | 0.511 | 0.917 | 0.000208 | 408000 | 0.259 | 1.07 | 0.000179 | 692000 | 0.0992 | 2.98 | 6.45e-05 | 651000 | H1H6762P (antibody, human IgG1, V domains shown, Human IgG1 Fc (H1H)) VH: QVQLVESGGGVVQPGRSLRLSCAASGFTFSHYGMVWVRQPPGKGLEWVALISFDGTTKYYADSVKGRFTISRDNSKNTLYLQMNSLRAEDTAVYFCVGAIAAAAFDLWGRGTLVTVSS VL: EIVMTQSPATLSVSPGERATLSCRASQSVSSDLAWYQQKPGQAPRLLIYSASARATGIPARFTGSGSGTDFTLTISSLQSEDFAVYYCQQYNNWPMYTFGQGTKLEIK
10 | 1.05 | 0.683 | 0.000279 | 266000 | 0.685 | 0.783 | 0.000247 | 360000 | 0.225 | 2.7 | 7.13e-05 | 317000 | H1H6782P (antibody, human IgG1, V domains shown, Human IgG1 Fc (H1H)) VH: EVQLVESGGGLVQPGRSLRLSCAASGFTFDDYAMHWVRQAPGKGLEWVSGIIWNSGHIGYGDSVKGRFTISRDNAKKSLYLQMNSLRAEDTALYYCARDSGRYQSYFDYWGQGTLVTVSS VL: DIQMTQSPSTLSASVGDRVTITCRASHIISSWLAWYQQKPGKAPKVLIFKASSLESGVPSRFSGSGSGTEFTLTISSLQPDDFATYYCQQYNTYSRTFGQGTKVEIK
11 | 0.986 | 1.37 | 0.000141 | 143000 | 0.61 | 1.52 | 0.000127 | 208000 | 0.236 | 3.18 | 6.05e-05 | 257000 | H1H6781P (antibody, human IgG1, V domains shown, Human IgG1 Fc (H1H)) VH: EVQLVESGGDLVQPGESLRLSCTASGFTFNSYEMNWVRQAPGKGLEWVSYISSSGGTKYYVDSVKGRFTISRDNAKKSLYLQMNSLRADDTALYYCARLNGVDVFDIWGQGTMVTVSS VL: DIQMTQSPSSLSASVGDRVTITCRASQDIFNYLAWFQQKPGKVPELLISAASTLQSGVPSRFSGSGSGTYFTLTISSLQPEDIATYYCQRYNSAPLTFGGGTKVEIK
12 | 0.738 | 1.15 | 0.000167 | 227000 | 0.567 | 1.13 | 0.000171 | 301000 | 0.231 | 3.17 | 6.07e-05 | 263000 | H1H6785P (antibody, human IgG1, V domains shown, Human IgG1 Fc (H1H)) VH: EVQLVESGGGLVQPGGSLRLSCAASGFTFSSYEMNWVRQAPGKGLEWISYISSRGGTIYYADSIKGRFTIYRDNARNSLYLQMNSLRAEDTAIYYCARLSGVDIFDIWGQGTMVTVSS VL: DIQMTQSPSSLSASVGDRVTITCRASQGISNYLAWYQQKPGKVPKLLIYFASTLQSGVPSRFSGGGSGTDFTLTISSLQPEDVATYYCQRYNSAPLTFGGGTKVEIK
